# Results as given in IntAct's records for PubMed 29039417.
# B1: BBSome complex member BBS5 (Homo sapiens), Q8N3I7 (parent)
# chain: MSVLDALWEDRDVRFDLSAQQMKTRPGEVLIDCLDSIEDTKGNNGDRGRLLVTNLRILWHSLALSRVNVSVGYNCILNITTRTANSKLRGQTEALYILTKCNSTRFEFIFTNLVPGSPRLFTSVMAVHRAYETSKMYRDFKLRSALIQNKQLRLLPQEHVYDKINGVWNLSSDQGNLGTFFITNVRIVWHANMNDSFNVSIPYLQIRSIKIRDSKFGLALVIESSQQSGGYVLGFKIDPVEKLQESVKEINSLHKVYSASPIFGVDYEMEEKPQPLEALTVEQIQDDVEIDSDGHTDAFVAYFADGNKQQDREPVFSEELGLAIEKLKDGFTLQGLWEVMS
# partner: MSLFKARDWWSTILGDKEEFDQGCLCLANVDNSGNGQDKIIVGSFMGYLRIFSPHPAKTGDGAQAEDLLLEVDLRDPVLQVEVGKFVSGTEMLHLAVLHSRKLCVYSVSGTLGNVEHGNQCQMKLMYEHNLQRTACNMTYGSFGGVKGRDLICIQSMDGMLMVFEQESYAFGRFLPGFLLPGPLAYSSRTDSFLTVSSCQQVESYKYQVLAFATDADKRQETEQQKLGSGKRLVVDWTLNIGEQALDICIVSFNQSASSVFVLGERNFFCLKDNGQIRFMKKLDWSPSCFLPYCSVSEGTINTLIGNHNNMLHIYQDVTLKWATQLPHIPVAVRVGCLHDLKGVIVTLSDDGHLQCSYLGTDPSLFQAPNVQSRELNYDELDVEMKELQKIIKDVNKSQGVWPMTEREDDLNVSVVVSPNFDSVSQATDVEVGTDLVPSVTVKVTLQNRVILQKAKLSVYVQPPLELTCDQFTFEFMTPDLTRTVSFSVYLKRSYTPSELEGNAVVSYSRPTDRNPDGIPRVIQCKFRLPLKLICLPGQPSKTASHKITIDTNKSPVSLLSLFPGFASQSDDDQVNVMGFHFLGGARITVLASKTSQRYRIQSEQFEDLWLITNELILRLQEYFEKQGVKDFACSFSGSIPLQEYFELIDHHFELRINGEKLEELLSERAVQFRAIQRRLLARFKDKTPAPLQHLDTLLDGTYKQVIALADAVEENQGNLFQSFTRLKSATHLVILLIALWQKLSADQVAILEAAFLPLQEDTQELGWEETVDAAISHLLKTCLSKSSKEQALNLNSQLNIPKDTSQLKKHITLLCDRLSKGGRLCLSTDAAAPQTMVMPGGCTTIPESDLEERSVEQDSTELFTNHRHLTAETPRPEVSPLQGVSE
# Variants of: B1
# Conditions: with pthb1_human BBS9, Q3SYG4
row,Variant,effect of a mutation on the interaction
1,L218K,with no effect
2,L218E,with no effect
3,L218A,with no effect
4,S224K,with no effect
5,S224E,with no effect
6,S224A,with no effect
7,Q227E,with no effect
8,Q227K,with no effect
9,Q227A,disrupting interaction strength
10,V232E,with no effect
11,V232A,with no effect
12,V232K,with no effect
13,L220A,with no effect
14,L220E,with no effect
15,L220K,with no effect
16,I237E,with no effect
17,I237K,with no effect
18,I237A,with no effect
19,D238N,disrupting interaction strength
20,D238A,with no effect
21,D238E,with no effect
22,D238K,with no effect
23,A219E,with no effect

row,Variant,effect of a mutation on the interaction
1,A219K,with no effect
2,E241K,with no effect
3,E241A,with no effect
4,P239E,with no effect
5,P239A,with no effect
6,P239K,with no effect
7,G234A,disrupting interaction strength
8,G234E,with no effect
9,G234K,with no effect
10,I222A,with no effect
11,I222K,with no effect
12,I222E,disrupting interaction strength
13,S246A,with no effect
14,S246K,with no effect
15,S246E,with no effect
16,V221A,with no effect
17,V221E,with no effect
18,V221K,with no effect
19,L233K,with no effect
20,L233A,disrupting interaction strength
21,L233E,with no effect
22,Q244K,with no effect
23,Q244E,with no effect

row,Variant,effect of a mutation on the interaction
1,Q244A,with no effect
2,G217K,with no effect
3,G217D,disrupting interaction strength
4,G217E,with no effect
5,L243A,with no effect
6,L243K,with no effect
7,L243E,with no effect
8,G229S,disrupting interaction strength
9,G229A,with no effect
10,G229K,with no effect
11,G229E,with no effect
12,Q226E,with no effect
13,Q226A,with no effect
14,Q226K,with no effect
15,F235K,disrupting interaction strength
16,F235A,with no effect
17,F235E,with no effect
18,G230E,with no effect
19,G230A,with no effect
20,G230K,with no effect
21,V240E,with no effect
22,V240A,with no effect
23,V240K,with no effect

row,Variant,effect of a mutation on the interaction
1,K242E,with no effect
2,K242A,with no effect
3,E223K,with no effect
4,E223A,with no effect
5,S225E,with no effect
6,S225K,with no effect
7,S225A,with no effect
8,S228A,with no effect
9,S228K,with no effect
10,S228E,with no effect
11,V247I,disrupting interaction strength
12,V247A,with no effect
13,V247E,with no effect
14,E245A,with no effect
15,E245K,with no effect
16,Y231K,with no effect
17,Y231A,disrupting interaction strength
18,Y231E,with no effect
19,K236E,disrupting interaction strength
20,K236A,with no effect
